These results are taken from the supplement of paper PMC12042874.

The nature of the data set: amyloid nucleation score (Sup35N fusion, yeast selection) (log enrichment); library NNK3; higher = more nucleation; inactive = no reads after selection. The essentials: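 Using DiMSum, nucleation scores were taken as the log enrichment of output over input reads, centred on the mode score of non-aggregating sequences. The input and output reads came from Illumina sequencing of plasmid inserts, with sequences under 100 input reads excluded. The yeast were psi-negative, expressed Sup35N fused to peptides of 20 random codons, were induced with 100 μM copper sulfate for 24 hours, and were grown 7 days at 30°C on medium lacking adenine and uracil.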

± gives the uncertainty stated by the source.

TLTRVRTRCTKWRFICNCPM registered an amyloid nucleation score of 0.254 ± 0.34.

LLHRTWVFNSELPWCRYVLK: the amyloid nucleation score result was “inactive”. Next, TSLEN: “inactive”; ASGVPIADYTNTLKRWWLSE: “inactive”. Next, DGRSFAVDAIVYCHLYR: 0.758 ± 0.11. AKICLFV: the amyloid nucleation score entry is “inactive”. Under CNVIE stands “inactive”; under ILRHKCDEQPVRVSGHCFA, “inactive”; under SAFTFPTLWIFTNPTVHLLF, “inactive”. For LRVPSPYIFYKSKGHNIGSL, the amyloid nucleation score entry is “inactive”. The substance GGKQCTPNDTM had an amyloid nucleation score of -0.186 ± 0.55. Under NNIPCGMGPSSSSCNASD stands “inactive”.

Turning to TCEWQRTCNPVGMSYKWSRG, the amyloid nucleation score entry is “inactive”. Next, CIFLDGVAPFWMGESRWRSG: “inactive”. Under VSDLEERSSILG stands “inactive”; under SPICNEEYNNVDTCILWGYF, “inactive”; under FFYSVLCLLRAVLVDSNLGW, “inactive”. VFTPLCAYVVGYLYEVCGDD: the amyloid nucleation score entry is “inactive”. For the substance RTNILVGRIR, the amyloid nucleation score result was “inactive”.

As for GEYFCRNLNHID, the amyloid nucleation score entry is “inactive”.

FSCSNSLTMVFVEDFNHATY: the amyloid nucleation score entry was “inactive”. In the case of TYGGLFLVHTVYVVALNWVR, the amyloid nucleation score entry was “inactive”.

Take SASVGFGHSSWNPIIGMIRI: the amyloid nucleation score result is “inactive”. Next, RSMYR: “inactive”; RSALRVM: “inactive”; PWDWWVDSACWRRRPVDDPR: “inactive”. Take FTWRRFRVKSYYDYFASLGV: the amyloid nucleation score entry is “inactive”. Under NLCRVMMFSFFTLLV stands 1.44 ± 0.1; under TTTFKLGISKSLDVSTRLRG, 0.31 ± 0.14; under FNETFYGKVGDILISLCRVL, “inactive”. With DERLVYGEKSCRFSLSYANM, the amyloid nucleation score entry was “inactive”. Under YDLRIYSKRVDPF stands “inactive”. As for VQPSFTMYMEFSCACVAMQL, the amyloid nucleation score is -0.423 ± 0.49. The substance FRNRGLNSNMNYSSFNVQSM registered an amyloid nucleation score of -0.124 ± 0.52. As to SFLTKSQKTNCGSLKEMCVG, the amyloid nucleation score result was “inactive”.

For IFWICWLGFVNCVYTAEIPT, the amyloid nucleation score entry is “inactive”. As for YNPIGFRRLFTPTCLFITKL, the amyloid nucleation score result is “inactive”. Next, VFVTRYKTKTPCLMTVRKEL: “inactive”; MYRCKKGGLCKLSGCTSKAL: “inactive”. Turning to GFIEW, the amyloid nucleation score result is “inactive”.

HLVKEGDNTMVGGYPFQWMT: the amyloid nucleation score entry was “inactive”. Under SRVRNDWYRVKVMGANVVGY stands “inactive”. Consider RGLQELLWI, for which the amyloid nucleation score was -0.999 ± 1.9. Under DTITRSTWIVCWRTE stands “inactive”; under SVKRDFFSLFRFVSNAVSED, “inactive”; under YMKDALNLRPLRSSTALFLS, “inactive”. Under LARRNTLVEGHDD stands “inactive”; under MCLSILE, “inactive”. Next, FCFKSLALELPIQKY: “inactive”. On to VLRSNKYRITMGMGKKFPAL, for which the amyloid nucleation score result is “inactive”. Next, SGVGCKSLFWSSVAYMSIWG: “inactive”. With SWRAVRRALLGRCNGSRVLV, the amyloid nucleation score result was “inactive”.

On to TVPVSSCGGLRNEPHDVRFG, for which the amyloid nucleation score result is “inactive”.
